Where no end group is shown, it is not given here.
Molecular target: Recombinant His-tagged Hsp70 protein, equivalent to HSPA1A
Assay: ELISA; peptide ELISA: heat shock proteins coated on MaxiSorp plates (1 µg/well/100 µl, carbonate buffer pH 9.6, 4°C overnight), blocked with PBS 2% BSA; CF-labeled peptides 100, 50, 25 ng/ml, 27°C 30 min; fluorescence counts read

fluorescence counts: 1200 counts
Binder: TKDNNLLGRFELSG (also: carboxyfluorescein (CF) label, position not given here) [carboxy-fluorescein (CF-) labeled 14-mer tumor penetrating peptide (TPP)]
